Test results as given in patent US20210388087A1 (Chugai, published 2021).
Changes are numbered by the printed parent chain. In names and notes the source's numbering stands. One block for each binder: values may come before it.

Target: T1, Human CD3eg linker (human)
T1 construct: single-chain construct; also called recombinant human CD3
T1 chain: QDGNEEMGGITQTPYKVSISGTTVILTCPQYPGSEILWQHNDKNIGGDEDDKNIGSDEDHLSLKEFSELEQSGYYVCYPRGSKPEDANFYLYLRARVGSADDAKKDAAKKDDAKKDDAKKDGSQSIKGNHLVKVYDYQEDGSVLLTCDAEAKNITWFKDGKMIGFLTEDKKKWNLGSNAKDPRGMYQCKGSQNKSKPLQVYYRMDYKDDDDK
Assay: SPR, vs unmutated H183/L072

B1: dBBDu183H P61Y/dBBDu072L (antibody, name in Kabat numbering, V domains shown)
VH: QVQLVESGGGLVQPGRSLRLSCAASGFTFSNAWMHWVRQAPGKGLEWVAQIKDKGNAYAAYYAYSVKGRFTISRDDSKNSIYLQMNSLKTEDTAVYYCHYVHYASASTVLPAFGVDAWGQGTTVTVSS
VL: DIVMTQSPLSLPVTPGEPASISCQASQELVHMNRNTYLHWYQQKPGQAPRLLIYKVSNRFPGVPDRFSGSGSGTDFTLKISRVEAEDVGVYYCAQGTSVPFTFGQGTKLEIK
- fold change of affinity: 1.9 fold

B5: dBBDu183H P100eW/dBBDu072L (antibody, name in Kabat numbering, V domains shown)
VH: B1 VH with Y64P, P111W
VL: B1 VL
- fold change of affinity: 1.7 fold

B8: dBBDu183H S62W/dBBDu072L (antibody, name in Kabat numbering, V domains shown)
VH: B1 VH with Y64P, S65W
VL: B1 VL
- fold change of affinity: 2 fold

B9: dBBDu183H S100aE/dBBDu072L (antibody, name in Kabat numbering, V domains shown)
VH: B1 VH with Y64P, S107E
VL: B1 VL
- fold change of affinity: 0.6 fold

B10: dBBDu183H S99G/dBBDu072L (antibody, name in Kabat numbering, V domains shown)
VH: B1 VH with Y64P, S105G
VL: B1 VL
- fold change of affinity: 1 fold

B13: dBBDu183H S62T/dBBDu072L (antibody, name in Kabat numbering, V domains shown)
VH: B1 VH with Y64P, S65T
VL: B1 VL
- fold change of affinity: 1.3 fold

B14: dBBDu183H S62Y/dBBDu072L (antibody, name in Kabat numbering, V domains shown)
VH: B1 VH with Y64P, S65Y
VL: B1 VL
- fold change of affinity: 1.5 fold

B16: dBBDu183H S99R/dBBDu072L (antibody, name in Kabat numbering, V domains shown)
VH: B1 VH with Y64P, S105R
VL: B1 VL
- fold change of affinity: 2 fold

B18: dBBDu183H P100eV/dBBDu072L (antibody, name in Kabat numbering, V domains shown)
VH: B1 VH with Y64P, P111V
VL: B1 VL
- fold change of affinity: 1.5 fold

B20: dBBDu183H P100eG/dBBDu072L (antibody, name in Kabat numbering, V domains shown)
VH: B1 VH with Y64P, P111G
VL: B1 VL
- fold change of affinity: 1.6 fold

B21: dBBDu183H P100eF/dBBDu072L (antibody, name in Kabat numbering, V domains shown)
VH: B1 VH with Y64P, P111F
VL: B1 VL
- fold change of affinity: 1.9 fold

B23: dBBDu183H S62E/dBBDu072L (antibody, name in Kabat numbering, V domains shown)
VH: B1 VH with Y64P, S65E
VL: B1 VL
- fold change of affinity: 1.2 fold

B25: dBBDu183H P100eN/dBBDu072L (antibody, name in Kabat numbering, V domains shown)
VH: B1 VH with Y64P, P111N
VL: B1 VL
- fold change of affinity: 1.3 fold

B29: dBBDu183H S62V/dBBDu072L (antibody, name in Kabat numbering, V domains shown)
VH: B1 VH with Y64P, S65V
VL: B1 VL
- fold change of affinity: 1.4 fold

B30: dBBDu183H S62R/dBBDu072L (antibody, name in Kabat numbering, V domains shown)
VH: B1 VH with Y64P, S65R
VL: B1 VL
- fold change of affinity: 1.5 fold

B32: dBBDu183H S99D/dBBDu072L (antibody, name in Kabat numbering, V domains shown)
VH: B1 VH with Y64P, S105D
VL: B1 VL
- fold change of affinity: 0.3 fold

B33: dBBDu183H P100eS/dBBDu072L (antibody, name in Kabat numbering, V domains shown)
VH: B1 VH with Y64P, P111S
VL: B1 VL
- fold change of affinity: 1.2 fold

B35: dBBDu183H P100eR/dBBDu072L (antibody, name in Kabat numbering, V domains shown)
VH: B1 VH with Y64P, P111R
VL: B1 VL
- fold change of affinity: 2.2 fold

B41: dBBDu183H S100aF/dBBDu072L (antibody, name in Kabat numbering, V domains shown)
VH: B1 VH with Y64P, S107F
VL: B1 VL
- fold change of affinity: 1.6 fold

B45: dBBDu183H S100aG/dBBDu072L (antibody, name in Kabat numbering, V domains shown)
VH: B1 VH with Y64P, S107G
VL: B1 VL
- fold change of affinity: 1.2 fold

Other lines, results leading:

- fold change of affinity: 0.8 fold
B2: dBBDu183H S99V/dBBDu072L (antibody, name in Kabat numbering, V domains shown)
VH: B1 VH with Y64P, S105V
VL: B1 VL

- fold change of affinity: 1.4 fold
B3: dBBDu183H S62G/dBBDu072L (antibody, name in Kabat numbering, V domains shown)
VH: B1 VH with Y64P, S65G
VL: B1 VL

- fold change of affinity: 1.8 fold
B4: dBBDu183H S99K/dBBDu072L (antibody, name in Kabat numbering, V domains shown)
VH: B1 VH with Y64P, S105K
VL: B1 VL

- fold change of affinity: 1.9 fold
B6: dBBDu183H S62F/dBBDu072L (antibody, name in Kabat numbering, V domains shown)
VH: B1 VH with Y64P, S65F
VL: B1 VL

- fold change of affinity: 1.4 fold
B7: dBBDu183H S62N/dBBDu072L (antibody, name in Kabat numbering, V domains shown)
VH: B1 VH with Y64P, S65N
VL: B1 VL

- fold change of affinity: 0.6 fold
B11: dBBDu183H S100aD/dBBDu072L (antibody, name in Kabat numbering, V domains shown)
VH: B1 VH with Y64P, S107D
VL: B1 VL

- fold change of affinity: 1 fold
B12: dBBDu183H S99Q/dBBDu072L (antibody, name in Kabat numbering, V domains shown)
VH: B1 VH with Y64P, S105Q
VL: B1 VL

- fold change of affinity: 0.6 fold
B15: dBBDu183H S99N/dBBDu072L (antibody, name in Kabat numbering, V domains shown)
VH: B1 VH with Y64P, S105N
VL: B1 VL

- fold change of affinity: 0.3 fold
B17: dBBDu183H S99E/dBBDu072L (antibody, name in Kabat numbering, V domains shown)
VH: B1 VH with Y64P, S105E
VL: B1 VL

- fold change of affinity: 0.8 fold
B19: dBBDu183H S99Y/dBBDu072L (antibody, name in Kabat numbering, V domains shown)
VH: B1 VH with Y64P, S105Y
VL: B1 VL

- fold change of affinity: 1.4 fold
B22: dBBDu183H P100eT/dBBDu072L (antibody, name in Kabat numbering, V domains shown)
VH: B1 VH with Y64P, P111T
VL: B1 VL

- fold change of affinity: 0.7 fold
B24: dBBDu183H P100eD/dBBDu072L (antibody, name in Kabat numbering, V domains shown)
VH: B1 VH with Y64P, P111D
VL: B1 VL

- fold change of affinity: 2.1 fold
B26: dBBDu183H P100eK/dBBDu072L (antibody, name in Kabat numbering, V domains shown)
VH: B1 VH with Y64P, P111K
VL: B1 VL

- fold change of affinity: 0.9 fold
B27: dBBDu183H S99T/dBBDu072L (antibody, name in Kabat numbering, V domains shown)
VH: B1 VH with Y64P, S105T
VL: B1 VL

- fold change of affinity: 1.2 fold
B28: dBBDu183H S62D/dBBDu072L (antibody, name in Kabat numbering, V domains shown)
VH: B1 VH with Y64P, S65D
VL: B1 VL

- fold change of affinity: 0.9 fold
B31: dBBDu183H S99W/dBBDu072L (antibody, name in Kabat numbering, V domains shown)
VH: B1 VH with Y64P, S105W
VL: B1 VL

- fold change of affinity: 1.3 fold
B34: dBBDu183H S62H/dBBDu072L (antibody, name in Kabat numbering, V domains shown)
VH: B1 VH with Y64P, S65H
VL: B1 VL

- fold change of affinity: 1.5 fold
B36: dBBDu183H P100eH/dBBDu072L (antibody, name in Kabat numbering, V domains shown)
VH: B1 VH with Y64P, P111H
VL: B1 VL

- fold change of affinity: 1 fold
B37: dBBDu183H S99F/dBBDu072L (antibody, name in Kabat numbering, V domains shown)
VH: B1 VH with Y64P, S105F
VL: B1 VL

- fold change of affinity: 2 fold
B38: dBBDu183H P100eY/dBBDu072L (antibody, name in Kabat numbering, V domains shown)
VH: B1 VH with Y64P, P111Y
VL: B1 VL

- fold change of affinity: 0.7 fold
B39: dBBDu183H S99H/dBBDu072L (antibody, name in Kabat numbering, V domains shown)
VH: B1 VH with Y64P, S105H
VL: B1 VL

- fold change of affinity: 1.3 fold
B40: dBBDu183H S62Q/dBBDu072L (antibody, name in Kabat numbering, V domains shown)
VH: B1 VH with Y64P, S65Q
VL: B1 VL

- fold change of affinity: 1.4 fold
B42: dBBDu183H S62K/dBBDu072L (antibody, name in Kabat numbering, V domains shown)
VH: B1 VH with Y64P, S65K
VL: B1 VL

- fold change of affinity: 1.5 fold
B43: dBBDu183H P100eQ/dBBDu072L (antibody, name in Kabat numbering, V domains shown)
VH: B1 VH with Y64P, P111Q
VL: B1 VL

- fold change of affinity: 1 fold
B44: dBBDu183H P100eE/dBBDu072L (antibody, name in Kabat numbering, V domains shown)
VH: B1 VH with Y64P, P111E
VL: B1 VL
